From publication PMC4005822, “Biochemical and functional characterization of Plasmodium falciparum GTP cyclohydrolase I” (Malaria Journal, 2014)

Columns and labels:
[1] = target: T1, Plasmodium falciparum Δ1-195 GCH1 (core GCH1) (Plasmodium falciparum, UniProt Q8I5H7); experiment: fluorescence of iodine-oxidised neopterin product; initial velocity at various GTP concentrations; format: biochemical; settings: GTP as substrate; called competitive by the authors
T1 construct: gene PF3D7_1224000; C-terminal core domain, residues 196-389 (N-terminal 1-195 deleted); pET45b(+), E. coli BL21(DE3)RIL, Ni-sepharose purified (His tag); homodecamer
T1 sequence (Q8I5H7 entry or part of it, stated change not applied): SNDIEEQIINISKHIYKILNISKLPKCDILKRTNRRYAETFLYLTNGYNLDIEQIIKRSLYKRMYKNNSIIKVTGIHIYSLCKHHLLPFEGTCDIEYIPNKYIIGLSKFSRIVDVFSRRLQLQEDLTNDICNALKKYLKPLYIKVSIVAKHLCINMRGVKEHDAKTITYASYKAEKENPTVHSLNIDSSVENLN

[2] = test system: Nc1nc2c(ncn2[C@@H]2O[C@H](COP(=O)(O)OP(=O)(O)OP(=O)(O)O)[C@@H](O)[C@H]2O)c(=O)[nH]1; experiment: fluorescence of iodine-oxidised neopterin product; format: biochemical, Plasmodium falciparum; settings: 50 mM Tris–HCl pH 7.8, 100 mM KCl, 20% glycerol, 37°C

| Compound | fluorescence of iodine-oxidised neopterin product; initial velocity at various G [1] | Km [2] [µM] | kcat [2] [s⁻¹] |
| --- | --- | --- | --- |
| Nc1nc2c([nH]c(=O)n2[C@@H]2O[C@H](COP(=O)(O)OP(=O)(O)OP(=O)(O)O)[C@@H](O)[C@H]2O)c(=O)[nH]1 [8-oxo-GTP] | 8-oxo-GTP could inhibit the activity of P. falciparum GCH1 with reduced fluorescent signal | – | – |
| Plasmodium falciparum Δ1-195 GCH1 (core GCH1) (Plasmodium falciparum 3D7) | – | 12.06 | 0.039 |
